Test results reported in US8541175B2, “Detection of molecular interactions using a reduced affinity enzyme complementation reporter system” (The Board of Trustees of the Leland Stanford Junior …, priority 2006, dated 2013).

Columns and labels:
Format in all cases: cell-based
[1] = target: EGFR and ErbB2 (Homo sapiens, UniProt P04626); experiment: Low affinity β-gal complementation, EGFR-ErbB2 heterodimerization; settings: for loss of β-gal activity (heterodimer dissociation) after removal of ligand: EGFRω-ErbB2α* cells, ligand added, then washout
Description: To perform a quantitative comparison of the different pairs of receptors, receptor expression level in cells was controlled, as the amount of β-gal fusion protein affects β-gal enzyme activity (FIG. 2). […] These cells were engineered to express either the ErbB2-ω or the EGFR-ω fusion proteins. Each of the ω-expressing parental cell lines were then split and transduced with each of three constructs encoding different α-fusion proteins, EGFR-α*, ErbB2-α*, and ErbB3-α*. Because the cells were generated from the same parental line, they expressed equivalent amounts of ω. To allow measurement of α* chimeric protein expression levels, YFP was included in each construct, between the ErbB receptor and the α*.

[2] = target: EGFR homodimers in the presence of excess ErbB2 (Homo sapiens, UniProt P04626); experiment: EGFR homodimerization in EGFRα*-EGFRω cell line overexpressing wild-type ErbB2; settings: EGFRα*-EGFRω cells overexpressing wild-type ErbB2; increasing concentrations of EGF
Description: As a test of this hypothesis, the wildtype ErbB2 lacking a β-gal fragment was overexpressed in the EGFRα*-EGFRω cell line. […] This disruption allowed EGFRα* and EGFRω to interact and homodimerize.

[3] = target: T1, ErbB2 homodimers (Homo sapiens, UniProt P04626); experiment: Low affinity β-gal complementation, ErbB2ω-ErbB2α* homodimerization; settings: ligand for 45 min; 20,000 cells per well
T1 construct: ErbB2 (aa 1-686); expressed in transfected cells; host or cells: C2C12 cells, retroviral transduction
Description: To perform a quantitative comparison of the different pairs of receptors, receptor expression level in cells was controlled, as the amount of β-gal fusion protein affects β-gal enzyme activity (FIG. 2). To this end, two parental cell lines were constructed using C2C12 cells in which ErbB family members are expressed at very low levels (S. Corti et al., Exp Cell Res 268, 36 (Aug. 1, 2001)). These cells were engineered to express either the ErbB2-ω or the EGFR-ω fusion proteins. Each of the ω-expressing parental cell lines were then split and transduced with each of three constructs encoding different α-fusion proteins, EGFR-α*, ErbB2-α*, and ErbB3-α*. Because the cells were generated from the same parental line, they expressed equivalent amounts of ω. To allow measurement of α* chimeric protein expression levels, YFP was included in each construct, between the ErbB receptor and the α*. […] YFP was imaged by confocal microscopy to ensure that the receptor fusion proteins were appropriately localized to the plasma membrane, which is essential to their function (FIG. 3).
Cells were returned to a 37° C.
Isoproterenol, propranolol and rapamycin were from Sigma.

Substance: EGF: recombinant human EGF from Peprotech, ligand that binds the EGFR
- EGFRω-ErbB2α* heterodimer formation over time (enzyme activity) ([1]; 100 ng/ml EGF): time-dependent increase in enzyme activity
- loss of β-gal activity (heterodimer dissociation) after removal of ligand [1]: β-gal activity decreased over time
- ligand-induced heterodimerization of EGFR with ErbB2 (β-gal activity) ([1]; ligand for 45 min, 20,000 cells per well): heterodimerization of EGFR with ErbB2
- β-gal activity in response to EGF, no antibody [2]: failed to stimulate β-gal activity
- response of ErbB2ω-ErbB2α* cells to ligand (β-gal activity) [3]: not responsive

Substance: TGF-α: recombinant human TGF-α from Peprotech, EGFR ligand
- loss of β-gal activity (heterodimer dissociation) after removal of ligand [1]: signal decayed more rapidly following TGF-α than after EGF exposure
